Km data for one protein are collected here from ChEMBL document CHEMBL1127885, “Benzylpenicillin methyl phosphate. A penicillin prodrug that inactivates RTEM -lactamase” (Bioorg Med Chem Lett, 1994).

Substrate in this data set: COP(=O)(O)OC(=O)[C@@H]1N2C(=O)[C@@H](NC(=O)Cc3ccccc3)[C@H]2SC1(C)C
In words: Km against beta-lactamase in Escherichia coli.

B1: Beta-lactamase TEM (Escherichia coli), P62593 (protein)
chain: MSIQHFRVALIPFFAAFCLPVFAHPETLVKVKDAEDQLGARVGYIELDLNSGKILESFRPEERFPMMSTFKVLLCGAVLSRVDAGQEQLGRRIHYSQNDLVEYSPVTEKHLTDGMTVRELCSAAITMSDNTAANLLLTTIGGPKELTAFLHNMGDHVTRLDRWEPELNEAIPNDERDTTMPAAMATTLRKLLTGELLTLASRQQLIDWMEADKVAGPLLRSALPAGWFIADKSGAGERGSRGIIAALGPDGKPSRIVVIYTTGSQATMDERNRQIAEIGASLIKHW
As a reminder, the Km is the concentration of substrate that gives half-maximal velocity. Take B1: the Michaelis constant (Km) is > 50 mM.
